Read-outs that look alike come from different tables or passages of the source. Blank lines part the entries; values can stand above or below the binder they belong to.
Legend:
[1] = biological target: human OX40 on cells (CHO-hOX40, 293HEK-hOX40, Jurkat-hOX40, activated primary CD4+ T cells) (human) (UniProt P43489); assay: flow cytometry, CHO-hOX40, 0.1953125 nM
[2] = biological target: human OX40 on cells (CHO-hOX40, 293HEK-hOX40, Jurkat-hOX40, activated primary CD4+ T cells) (human) (UniProt P43489); assay: flow cytometry, CHO-hOX40, 100 nM
[3] = biological target: human OX40 on cells (CHO-hOX40, 293HEK-hOX40, Jurkat-hOX40, activated primary CD4+ T cells) (human) (UniProt P43489); assay: flow cytometry, 293HEK-hOX40, 8 nM
[4] = biological target: human OX40_Fc (R&D Systems) (human) (UniProt P43489); assay: BLI, IgG1 on tip, hOX40-Fc 50 nM, avid
Chain of human OX40_Fc (R&D Systems) (human) (P43489 29-216): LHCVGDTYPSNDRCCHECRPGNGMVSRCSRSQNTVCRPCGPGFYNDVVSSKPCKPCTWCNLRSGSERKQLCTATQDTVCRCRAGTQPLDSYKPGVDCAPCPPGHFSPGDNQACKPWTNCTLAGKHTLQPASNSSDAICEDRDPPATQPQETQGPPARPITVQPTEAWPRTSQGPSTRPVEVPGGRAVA

[5] = biological target: human OX40 on cells (CHO-hOX40, 293HEK-hOX40, Jurkat-hOX40, activated primary CD4+ T cells) (human) (UniProt P43489); assay: flow cytometry, CHO-hOX40, 0.09765625 nM
[6] = biological target: cyno OX40_Fc (Acro Biosystems) (cyno); assay: BLI, IgG1 on tip, cyno OX40-Fc 100 nM, avid
[7] = biological target: human OX40 on cells (CHO-hOX40, 293HEK-hOX40, Jurkat-hOX40, activated primary CD4+ T cells) (human) (UniProt P43489); assay: flow cytometry, CHO-hOX40, 25 nM
[8] = biological target: human OX40 on cells (CHO-hOX40, 293HEK-hOX40, Jurkat-hOX40, activated primary CD4+ T cells) (human) (UniProt P43489); assay: flow cytometry, CHO-hOX40, 100 nM; remark: listed apart in the source
[9] = biological target: human OX40 on cells (CHO-hOX40, 293HEK-hOX40, Jurkat-hOX40, activated primary CD4+ T cells) (human) (UniProt P43489); assay: flow cytometry, CHO-hOX40, 0.78125 nM
[10] = biological target: human OX40 on cells (CHO-hOX40, 293HEK-hOX40, Jurkat-hOX40, activated primary CD4+ T cells) (human) (UniProt P43489); assay: flow cytometry, CHO-hOX40, 200 nM
[11] = biological target: human OX40 on cells (CHO-hOX40, 293HEK-hOX40, Jurkat-hOX40, activated primary CD4+ T cells) (human) (UniProt P43489); assay: flow cytometry, 293HEK-hOX40, 40 nM
[12] = biological target: human OX40 on cells (CHO-hOX40, 293HEK-hOX40, Jurkat-hOX40, activated primary CD4+ T cells) (human) (UniProt P43489); assay: flow cytometry, CHO-hOX40, […]
[13] = biological target: human OX40 on cells (CHO-hOX40, 293HEK-hOX40, Jurkat-hOX40, activated primary CD4+ T cells) (human) (UniProt P43489); assay: flow cytometry, 293HEK-hOX40, 200 nM
[14] = biological target: human OX40_Fc (R&D Systems) (human) (UniProt P43489); assay: BLI, IgG1 on tip, hOX40-Fc 50 nM, avid; remark: listed apart in the source
[15] = biological target: human OX40 on cells (CHO-hOX40, 293HEK-hOX40, Jurkat-hOX40, activated primary CD4+ T cells) (human) (UniProt P43489); assay: flow cytometry, activated CD4+ T cells, donor 1, 100 nM
[16] = biological target: cyno OX40_Fc (Acro Biosystems) (cyno); assay: BLI, IgG1 on tip, cyno OX40-Fc 100 nM, avid; remark: listed apart in the source
[17] = biological target: human OX40 on cells (CHO-hOX40, 293HEK-hOX40, Jurkat-hOX40, activated primary CD4+ T cells) (human) (UniProt P43489); assay: flow cytometry, CHO-hOX40, 3.125 nM
[18] = biological target: human OX40 on cells (CHO-hOX40, 293HEK-hOX40, Jurkat-hOX40, activated primary CD4+ T cells) (human) (UniProt P43489); assay: flow cytometry, CHO-hOX40, 0.024414063 nM
[19] = biological target: human OX40 on cells (CHO-hOX40, 293HEK-hOX40, Jurkat-hOX40, activated primary CD4+ T cells) (human) (UniProt P43489); assay: flow cytometry, CHO-hOX40, 0.390625 nM
[20] = biological target: human OX40 on cells (CHO-hOX40, 293HEK-hOX40, Jurkat-hOX40, activated primary CD4+ T cells) (human) (UniProt P43489); assay: flow cytometry, CHO-hOX40, 100 nM blocker, competitor OX40L-hFc-fluorescein
[21] = biological target: human OX40 on cells (CHO-hOX40, 293HEK-hOX40, Jurkat-hOX40, activated primary CD4+ T cells) (human) (UniProt P43489); assay: flow cytometry, CHO-hOX40
[22] = biological target: human OX40 on cells (CHO-hOX40, 293HEK-hOX40, Jurkat-hOX40, activated primary CD4+ T cells) (human) (UniProt P43489); assay: flow cytometry, MFI on CHO-hOX40 over wild-type CHO
[23] = biological target: human OX40 on cells (CHO-hOX40, 293HEK-hOX40, Jurkat-hOX40, activated primary CD4+ T cells) (human) (UniProt P43489); assay: flow cytometry, CHO-hOX40, 12.5 nM
[24] = biological target: human OX40 on cells (CHO-hOX40, 293HEK-hOX40, Jurkat-hOX40, activated primary CD4+ T cells) (human) (UniProt P43489); assay: flow cytometry, activated CD4+ T cells, donor 2, 100 nM
[25] = biological target: human OX40 on cells (CHO-hOX40, 293HEK-hOX40, Jurkat-hOX40, activated primary CD4+ T cells) (human) (UniProt P43489); assay: cell-based or functional assay
[26] = biological target: human OX40 on cells (CHO-hOX40, 293HEK-hOX40, Jurkat-hOX40, activated primary CD4+ T cells) (human) (UniProt P43489); assay: flow cytometry, MFI on CHO-hOX40 over wild-type CHO; remark: listed apart in the source
[27] = biological target: human OX40 on cells (CHO-hOX40, 293HEK-hOX40, Jurkat-hOX40, activated primary CD4+ T cells) (human) (UniProt P43489); assay: flow cytometry, CHO-hOX40, 50 nM
[28] = biological target: human OX40 on cells (CHO-hOX40, 293HEK-hOX40, Jurkat-hOX40, activated primary CD4+ T cells) (human) (UniProt P43489); assay: flow cytometry, 293HEK-hOX40, 1.6 nM
[29] = biological target: human OX40 on cells (CHO-hOX40, 293HEK-hOX40, Jurkat-hOX40, activated primary CD4+ T cells) (human) (UniProt P43489); assay: flow cytometry, CHO-hOX40, 6.25 nM
[30] = biological target: human OX40 on cells (CHO-hOX40, 293HEK-hOX40, Jurkat-hOX40, activated primary CD4+ T cells) (human) (UniProt P43489); assay: flow cytometry, CHO-hOX40, 0.048828125 nM

Chain of human OX40 on cells (CHO-hOX40, 293HEK-hOX40, Jurkat-hOX40, activated primary CD4+ T cells) (human) (P43489 29-277): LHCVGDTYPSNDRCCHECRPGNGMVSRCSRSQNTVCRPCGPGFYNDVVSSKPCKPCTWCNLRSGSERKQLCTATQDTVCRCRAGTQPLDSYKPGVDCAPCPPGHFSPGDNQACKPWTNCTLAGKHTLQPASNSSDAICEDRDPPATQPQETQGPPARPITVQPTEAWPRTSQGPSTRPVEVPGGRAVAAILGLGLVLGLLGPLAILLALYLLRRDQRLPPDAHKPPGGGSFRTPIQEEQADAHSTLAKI

MFI [1]: 181000 MFI
CHO-OX40 binding intensity (MFI) [2]: 183000 MFI
MFI [3]: 1.74e+06 MFI
Kd [4]: 0.25 nM
MFI [5]: 77600 MFI
Kd [6]: 4.96 nM
MFI [7]: 2.24e+06 MFI
CHO-OX40 binding intensity (MFI) [8]: 164000 MFI
MFI [8]: 2.5e+06 MFI
MFI [9]: 600000 MFI
MFI [10]: 2.64e+06 MFI
MFI [11]: 1.8e+06 MFI
MFI [12]: 1.25e+06 MFI
MFI [13]: 1.79e+06 MFI
Kd [14]: 0.475 nM
MFI [15]: 115000 MFI
Kd [16]: 5.17 nM
MFI [17]: 1.77e+06 MFI
MFI [18]: 26700 MFI
MFI [19]: 474000 MFI
MFI of OX40L signal on CHO-OX40 cells [20]: 25800 MFI
EC50 [21]: 1.94 nM
Fold difference [22]: 2630 fold
MFI [23]: 2.18e+06 MFI
MFI [24]: 136000 MFI
NFkB-Luc fold change in Jurkat stimulated by PHA+ anti-CD28 (fold over IgG4 control) [25]: 1.93
NFkB-Luc fold change in Jurkat stimulated by anti-CD3+ anti-CD28 (fold over IgG4 control) [25]: 1.77
Fold difference [26]: 1700 fold
MFI [27]: 2.34e+06 MFI
MFI [28]: 650000 MFI
MFI [29]: 2.02e+06 MFI
MFI [30]: 49800 MFI
B1: Hu106-222, humanized IgG1 OX40 antibody (antibody, from another filing, V domains shown)
VH: QVQLVQSGSELKKPGASVKVSCKASGYTFTDYSMHWVRQAPGQGLKWMGWINTETGEPTYADDFKGRFVFSLDTSVSTAYLQISSLKAEDTAVYYCANPYYDYVSYYAMDYWGQGTTVTVSS
VL: DIQMTQSPSSLSASVGDRVTITCKASQDVSTAVAWYQQKPGKAPKLLIYSASYLYTGVPSRFSGSGSGTDFTFTISSLQPEDIATYYCQQHYSTPRTFGQGTKLEIK

MFI [1]: 1680 MFI
MFI [5]: 1590 MFI
MFI [7]: 22100 MFI
MFI [8]: 93000 MFI
MFI [9]: 2250 MFI
MFI [10]: 216000 MFI
MFI [12]: 2900 MFI
MFI [17]: 4150 MFI
MFI [18]: 1510 MFI
MFI [19]: 1890 MFI
MFI [23]: 11900 MFI
MFI [27]: 44100 MFI
MFI [29]: 6400 MFI
MFI [30]: 1560 MFI
B2: IgG2 control (antibody, V domains shown)
VH: QLQLQKSGPGLVKPSETLSLTCTVSGFTFSNYAMGWIRQPPGKGLEWIGAISGSGGSTYYADSVKGRVTISVDTSKNQFSLKLSSVTAADTAVYYCARGGPGWYAADVWGQGTLVTVSS
VL: EIVLTQSPATLSLSPGERATLSCRASQSISSYLNWYQQKPGQAPRLLIYAASSLQSGIPARFSGSGSGTDFTLTISSLEPEDFAVYYCQQADLPAFAFGGGTKVEIKR

Source: patent US20200140562A1
